In patent US20210139548A1 (published 2021):
Each block holds one binder with its values, some of them ahead of it. *1 amine or outer side, *2 acyl side, *3 side chain or, on linkers, in order; H or OH if unused. Side-chain parts run from the residue outwards. The star is where a group is joined. C18 diacid = O=C(O)CCCCCCCCCCCCCCCCC(=O)*; γGlu = O=C(O)[C@H](CCC(=O)[*:2])N[*:1]; Isovaleryl = CC(C)CC(=O)*; AEEA = NCCOCCOCC(=O)O

Key:
human NPY4 receptor = human NPY4 receptor (human, UniProt P50391 1-375); test: cell-based or functional assay
human NPY1 receptor = molecular target: T1, human NPY1 receptor (human, UniProt P25929 1-384); test: cell-based or functional assay
T1 sequence (looked up): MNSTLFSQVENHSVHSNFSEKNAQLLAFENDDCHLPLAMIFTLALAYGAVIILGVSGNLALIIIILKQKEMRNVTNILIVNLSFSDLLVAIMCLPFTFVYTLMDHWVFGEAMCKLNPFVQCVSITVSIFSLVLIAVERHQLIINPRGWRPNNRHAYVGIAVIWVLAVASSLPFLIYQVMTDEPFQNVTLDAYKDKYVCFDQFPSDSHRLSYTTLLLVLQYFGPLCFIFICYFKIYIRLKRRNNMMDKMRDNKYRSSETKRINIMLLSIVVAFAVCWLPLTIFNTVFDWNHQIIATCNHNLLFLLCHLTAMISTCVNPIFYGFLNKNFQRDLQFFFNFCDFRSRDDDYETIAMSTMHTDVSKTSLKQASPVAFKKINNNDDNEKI

[1] = molecular target: T2, human neuropeptide Y2 receptor (human, UniProt P49146 1-381); test: cell-based or functional assay
T2 sequence (looked up): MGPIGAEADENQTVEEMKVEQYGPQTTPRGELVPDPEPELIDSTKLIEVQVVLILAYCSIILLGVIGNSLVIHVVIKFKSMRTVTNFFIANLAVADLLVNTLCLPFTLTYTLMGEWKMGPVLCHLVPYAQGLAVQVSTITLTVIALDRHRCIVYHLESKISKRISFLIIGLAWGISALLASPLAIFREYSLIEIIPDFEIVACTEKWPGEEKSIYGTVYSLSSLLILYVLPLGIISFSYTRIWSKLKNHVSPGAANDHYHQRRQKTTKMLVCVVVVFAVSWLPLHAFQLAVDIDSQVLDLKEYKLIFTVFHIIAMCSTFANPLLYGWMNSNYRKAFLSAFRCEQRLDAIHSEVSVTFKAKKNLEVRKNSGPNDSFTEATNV

human NPY5 receptor = molecular target: T3, human NPY5 receptor (human, UniProt Q15761 1-445); test: cell-based or functional assay
T3 sequence (looked up): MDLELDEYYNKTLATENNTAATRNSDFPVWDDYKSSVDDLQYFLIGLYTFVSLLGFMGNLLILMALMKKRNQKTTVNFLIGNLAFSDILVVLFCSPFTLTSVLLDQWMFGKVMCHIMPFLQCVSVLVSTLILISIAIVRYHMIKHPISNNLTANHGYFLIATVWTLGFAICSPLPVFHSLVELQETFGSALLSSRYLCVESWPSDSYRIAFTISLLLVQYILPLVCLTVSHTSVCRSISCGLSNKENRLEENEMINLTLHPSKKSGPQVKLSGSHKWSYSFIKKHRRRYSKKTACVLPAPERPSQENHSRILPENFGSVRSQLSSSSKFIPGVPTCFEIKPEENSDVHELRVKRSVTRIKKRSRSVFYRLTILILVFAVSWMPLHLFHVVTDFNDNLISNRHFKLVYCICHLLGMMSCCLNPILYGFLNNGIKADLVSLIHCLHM

[2] = molecular target: T2, human neuropeptide Y2 receptor; test: radioligand competition (125I-PYY(1-36)), hNPY2R membranes
Procedure, shortened: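 Commercial human Y2 receptor membranes (0.5 μg protein/well) were incubated with peptide for 2 h at room temperature in 50 mM HEPES, 5 mM MgCl₂, 1 mM CaCl₂, pH 7.4, with 0.2% ovalbumin. Bound radioligand was separated on PEI-soaked GF/C filters and counted by scintillation, and IC₅₀ came from nonlinear sigmoidal regression.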

Chain of human NPY4 receptor (P50391 whole entry): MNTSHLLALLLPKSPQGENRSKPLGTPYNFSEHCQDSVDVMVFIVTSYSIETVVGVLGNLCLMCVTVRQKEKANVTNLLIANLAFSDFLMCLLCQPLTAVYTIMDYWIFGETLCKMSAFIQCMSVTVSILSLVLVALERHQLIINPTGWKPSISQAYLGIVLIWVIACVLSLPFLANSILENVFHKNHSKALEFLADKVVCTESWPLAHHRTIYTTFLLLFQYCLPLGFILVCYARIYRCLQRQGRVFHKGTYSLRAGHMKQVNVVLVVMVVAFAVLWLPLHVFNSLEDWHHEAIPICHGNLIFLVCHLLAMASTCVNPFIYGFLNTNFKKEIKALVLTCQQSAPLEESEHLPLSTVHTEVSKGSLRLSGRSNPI

B2: Compound 18 (peptide)
peptide: Isovaleryl-APEK([AEEA-AEEA-γGlu-C18 diacid])PEEDAEPEELQQYYVSLRHYYNWLTRQRY-NH2
SMILES: CC(C)CC(=O)N[C@@H](C)C(=O)N1CCC[C@H]1C(=O)N[C@@H](CCC(=O)O)C(=O)N[C@@H](CCCCNC(=O)COCCOCCNC(=O)COCCOCCNC(=O)CC[C@H](NC(=O)CCCCCCCCCCCCCCCCC(=O)O)C(=O)O)C(=O)N1CCC[C@H]1C(=O)N[C@@H](CCC(=O)O)C(=O)N[C@@H](CCC(=O)O)C(=O)N[C@@H](CC(=O)O)C(=O)N[C@@H](C)C(=O)N[C@@H](CCC(=O)O)C(=O)N1CCC[C@H]1C(=O)N[C@@H](CCC(=O)O)C(=O)N[C@@H](CCC(=O)O)C(=O)N[C@@H](CC(C)C)C(=O)N[C@@H](CCC(N)=O)C(=O)N[C@@H](CCC(N)=O)C(=O)N[C@@H](Cc1ccc(O)cc1)C(=O)N[C@@H](Cc1ccc(O)cc1)C(=O)N[C@H](C(=O)N[C@@H](CO)C(=O)N[C@@H](CC(C)C)C(=O)N[C@@H](CCCNC(=N)N)C(=O)N[C@@H](Cc1c[nH]cn1)C(=O)N[C@@H](Cc1ccc(O)cc1)C(=O)N[C@@H](Cc1ccc(O)cc1)C(=O)N[C@@H](CC(N)=O)C(=O)N[C@@H](Cc1c[nH]c2ccccc12)C(=O)N[C@@H](CC(C)C)C(=O)N[C@H](C(=O)N[C@@H](CCCNC(=N)N)C(=O)N[C@@H](CCC(N)=O)C(=O)N[C@@H](CCCNC(=N)N)C(=O)N[C@@H](Cc1ccc(O)cc1)C(N)=O)[C@@H](C)O)C(C)C
- EC50 (HTRF cAMP Gi assay) (human NPY4 receptor): > 5000 nM
- EC50 (HTRF cAMP Gi assay) (human NPY1 receptor): > 5000 nM
- EC50 (HTRF cAMP Gi assay) [1]: 0.167 nM
- EC50 (HTRF cAMP Gi assay) (human NPY5 receptor): > 5000 nM
- Ki [2]: 3.71 nM

B4: Compound 41 (peptide)
peptide: Isovaleryl-APEK([AEEA-AEEA-γGlu-C18 diacid])PEEEATPEELQRYYVSLRHYYNWLTRQRY-NH2
SMILES: CC(C)CC(=O)N[C@@H](C)C(=O)N1CCC[C@H]1C(=O)N[C@@H](CCC(=O)O)C(=O)N[C@@H](CCCCNC(=O)COCCOCCNC(=O)COCCOCCNC(=O)CC[C@H](NC(=O)CCCCCCCCCCCCCCCCC(=O)O)C(=O)O)C(=O)N1CCC[C@H]1C(=O)N[C@@H](CCC(=O)O)C(=O)N[C@@H](CCC(=O)O)C(=O)N[C@@H](CCC(=O)O)C(=O)N[C@@H](C)C(=O)N[C@H](C(=O)N1CCC[C@H]1C(=O)N[C@@H](CCC(=O)O)C(=O)N[C@@H](CCC(=O)O)C(=O)N[C@@H](CC(C)C)C(=O)N[C@@H](CCC(N)=O)C(=O)N[C@@H](CCCNC(=N)N)C(=O)N[C@@H](Cc1ccc(O)cc1)C(=O)N[C@@H](Cc1ccc(O)cc1)C(=O)N[C@H](C(=O)N[C@@H](CO)C(=O)N[C@@H](CC(C)C)C(=O)N[C@@H](CCCNC(=N)N)C(=O)N[C@@H](Cc1c[nH]cn1)C(=O)N[C@@H](Cc1ccc(O)cc1)C(=O)N[C@@H](Cc1ccc(O)cc1)C(=O)N[C@@H](CC(N)=O)C(=O)N[C@@H](Cc1c[nH]c2ccccc12)C(=O)N[C@@H](CC(C)C)C(=O)N[C@H](C(=O)N[C@@H](CCCNC(=N)N)C(=O)N[C@@H](CCC(N)=O)C(=O)N[C@@H](CCCNC(=N)N)C(=O)N[C@@H](Cc1ccc(O)cc1)C(N)=O)[C@@H](C)O)C(C)C)[C@@H](C)O
- EC50 (HTRF cAMP Gi assay) (human NPY4 receptor): > 5000 nM
- EC50 (HTRF cAMP Gi assay) (human NPY1 receptor): > 5000 nM
- EC50 (HTRF cAMP Gi assay) [1]: 0.159 nM
- EC50 (HTRF cAMP Gi assay) (human NPY5 receptor): > 5000 nM
- Ki [2]: 3.22 nM

Continued by falling Ki [2], values first:

- EC50 (HTRF cAMP Gi assay) (human NPY4 receptor): > 5000 nM
- EC50 (HTRF cAMP Gi assay) (human NPY1 receptor): > 5000 nM
- EC50 (HTRF cAMP Gi assay) [1]: 0.152 nM
- EC50 (HTRF cAMP Gi assay) (human NPY5 receptor): > 5000 nM
- Ki [2]: 3.3 nM
B3: Compound 46 (peptide)
peptide: Isovaleryl-APEK([AEEA-AEEA-γGlu-C18 diacid])PEEEASPEELQRYYVSLRHYYNWLTRQRY-NH2
SMILES: CC(C)CC(=O)N[C@@H](C)C(=O)N1CCC[C@H]1C(=O)N[C@@H](CCC(=O)O)C(=O)N[C@@H](CCCCNC(=O)COCCOCCNC(=O)COCCOCCNC(=O)CC[C@H](NC(=O)CCCCCCCCCCCCCCCCC(=O)O)C(=O)O)C(=O)N1CCC[C@H]1C(=O)N[C@@H](CCC(=O)O)C(=O)N[C@@H](CCC(=O)O)C(=O)N[C@@H](CCC(=O)O)C(=O)N[C@@H](C)C(=O)N[C@@H](CO)C(=O)N1CCC[C@H]1C(=O)N[C@@H](CCC(=O)O)C(=O)N[C@@H](CCC(=O)O)C(=O)N[C@@H](CC(C)C)C(=O)N[C@@H](CCC(N)=O)C(=O)N[C@@H](CCCNC(=N)N)C(=O)N[C@@H](Cc1ccc(O)cc1)C(=O)N[C@@H](Cc1ccc(O)cc1)C(=O)N[C@H](C(=O)N[C@@H](CO)C(=O)N[C@@H](CC(C)C)C(=O)N[C@@H](CCCNC(=N)N)C(=O)N[C@@H](Cc1c[nH]cn1)C(=O)N[C@@H](Cc1ccc(O)cc1)C(=O)N[C@@H](Cc1ccc(O)cc1)C(=O)N[C@@H](CC(N)=O)C(=O)N[C@@H](Cc1c[nH]c2ccccc12)C(=O)N[C@@H](CC(C)C)C(=O)N[C@H](C(=O)N[C@@H](CCCNC(=N)N)C(=O)N[C@@H](CCC(N)=O)C(=O)N[C@@H](CCCNC(=N)N)C(=O)N[C@@H](Cc1ccc(O)cc1)C(N)=O)[C@@H](C)O)C(C)C

- EC50 (HTRF cAMP Gi assay) (human NPY4 receptor): > 5000 nM
- EC50 (HTRF cAMP Gi assay) (human NPY1 receptor): > 5000 nM
- EC50 (HTRF cAMP Gi assay) [1]: 0.334 nM
- EC50 (HTRF cAMP Gi assay) (human NPY5 receptor): > 5000 nM
- Ki [2]: 0.74 nM
B1: Compound 11 (peptide)
peptide: Isovaleryl-APEK([AEEA-AEEA-γGlu-C18 diacid])PEEDASPEEIQQYYVSLRHYYNWLTRQRY-NH2
SMILES: CC[C@H](C)[C@H](NC(=O)[C@H](CCC(=O)O)NC(=O)[C@H](CCC(=O)O)NC(=O)[C@@H]1CCCN1C(=O)[C@H](CO)NC(=O)[C@H](C)NC(=O)[C@H](CC(=O)O)NC(=O)[C@H](CCC(=O)O)NC(=O)[C@H](CCC(=O)O)NC(=O)[C@@H]1CCCN1C(=O)[C@H](CCCCNC(=O)COCCOCCNC(=O)COCCOCCNC(=O)CC[C@H](NC(=O)CCCCCCCCCCCCCCCCC(=O)O)C(=O)O)NC(=O)[C@H](CCC(=O)O)NC(=O)[C@@H]1CCCN1C(=O)[C@H](C)NC(=O)CC(C)C)C(=O)N[C@@H](CCC(N)=O)C(=O)N[C@@H](CCC(N)=O)C(=O)N[C@@H](Cc1ccc(O)cc1)C(=O)N[C@@H](Cc1ccc(O)cc1)C(=O)N[C@H](C(=O)N[C@@H](CO)C(=O)N[C@@H](CC(C)C)C(=O)N[C@@H](CCCNC(=N)N)C(=O)N[C@@H](Cc1c[nH]cn1)C(=O)N[C@@H](Cc1ccc(O)cc1)C(=O)N[C@@H](Cc1ccc(O)cc1)C(=O)N[C@@H](CC(N)=O)C(=O)N[C@@H](Cc1c[nH]c2ccccc12)C(=O)N[C@@H](CC(C)C)C(=O)N[C@H](C(=O)N[C@@H](CCCNC(=N)N)C(=O)N[C@@H](CCC(N)=O)C(=O)N[C@@H](CCCNC(=N)N)C(=O)N[C@@H](Cc1ccc(O)cc1)C(N)=O)[C@@H](C)O)C(C)C
